Data reported in article PMC4604765, “Eye drop delivery of pigment epithelium-derived factor-34 promotes retinal ganglion cell neuroprotection and axon regeneration” (Molecular and Cellular Neurosciences, 2015).
Like-named read-outs stand apart in the source and are kept apart here.

Tests used:
[1] = rat, in vivo; cited from earlier work
From the text: Drug administration to the retina and vitreous body is challenging. Drugs applied to the surface of the eye rarely penetrate the ocular surface or enter into the vitreous body and the retina ([Gaudana et al., 2010]). Biological barriers such as the cornea, conjunctiva and the tear film limit penetration and bioavailability of topical drug preparations to the posterior segment of the eye and therefore direct injection of drugs to the vitreous is commonly used to target drugs to the retina ([Ayalasomayajula and Kompella, 2005; Carneiro et al., 2009; Eldaly and Styles, 2009; Yasukawa et al., 2001 ...

RGC = conditions: intravitreal injections, ref Cheng et al., 2002, Kermer et al., 1998, Kurokawa et al., 1999, Monnier et al., 2011, Parrilla-Reverter et al., 2009, cited from earlier work
From the text: Other commonly used retinal neuron/RGC neuroprotective factors include BDNF, glial-derived neurotrophic factor (GDNF), neurotrophin (NT)-3, NT-4/5, as well as caspase inhibitors ([Cheng et al., 2002; Kermer et al., 1998; Kurokawa et al., 1999; Monnier et al., 2011; Parrilla-Reverter et al., 2009]). Although intravitreal injections of BDNF protect 100% of RGC for 7 days, efficiency declines to 60% by 21 days. Most neuroprotective strategies tested support the survival of a maximum of 60% of RGC at 2 weeks after injury ([Cheng et al., 2002; Kermer et al., 1998; Kurokawa et al., 1999; Monnier et ...

[2] = tested on: βIII-tubulin+ retinal neurons; conditions: CNTF 440.5 pM, 4 days in culture
From the text: For all in vitro experiments, adult 6–8-week-old female Sprague–Dawley rats weighing 170–220 g were used. Culture experiments included retinal cells treated with: (1), Neurobasal-A (NBA) alone (Control); and equimolar concentrations of (2), 2.16; (3) 5.4; (4), 10.8 and (5), 21.6 pM PEDF-34/-44; and (6), ciliary neurotrophic factor (CNTF: Peprotech, London, UK), as a positive control at an optimal neuroprotective/axogenic concentration of 440.5 pM, established by us previously ([Ahmed et al., 2009; Douglas et al., 2009]). […] All experiments were performed in triplicate and repeated on three independent occasions.
Mixed adult rat retinal cultures containing enriched populations of retinal neurons, including RGCs, were prepared from 6–8-week-old adult female Sprague–Dawley rats, as described previously ([Ahmed et al., 2006b, 2009, 2010; Douglas et al., 2009; Vigneswara et al., 2013]). Briefly, retinal cells were dissociated using a Papain dissociation kit according to the manufacturer's instructions (Worthington Biochemicals, Lakewood, NJ, USA). […]
The mean number of βIII-tubulin^+ neurons surviving, with neurites and the mean neurite length were quantified as described by us previously ([Vigneswara et al., 2013, 2014]). Briefly, chamber slides were anonymised by a second investigator and βIII-tubulin^+ neuronal soma and neurites quantified in 9 quadrants/well using Axiovision software (Version 4.8; Zeiss) and ImagePro (Version 6.3; Media Cybernetics, Bethesda, MD, USA). Of the 125,000 cells/well plated, the total numbers of neurons in each experiment were determined by βIII-tubulin^+ immunocytochemistry after allowing 30 min for cells to adhere to glass culture slides. […] Neurite outgrowth from at least 180 neurons/condition from the 9 wells was measured, except in control (NBA) cultures, in which a total of 108 neurons were measured.

RGC axons = conditions: administration of CNTF after ONC; ref Vigneswara et al., 2013; cited from earlier work
[3] = tested on: retinal ganglion cells (RGCs); conditions: intravitreal delivery at 0, 7 and 14 days after ONC, equimolar concentrations, 21 days after ONC; ref Vigneswara et al., 2013; cited from earlier work
Protocol: Here we wished to confirm that, in vivo, PEDF-34 was more neuroprotective than full length PEDF. After intravitreal injection of vehicle + 0 nM PEDF-34, 295 ± 15 FG^+ RGC/mm^2 survived 21 days after ONC + PBS (0 nM PEDF-34) (Fig. 2A and B). Increasing the dose of ...

^125I-labelled nerve growth factor: 125I-labelled nerve growth factor (26 kDa)
time of peak accumulation in the retina and optic nerve [1]: 6 h

B1: BDNF: brain-derived neurotrophic factor (protein, UniProt P23560 19-247, looked up)
Neurotrophic factor BDNF …: APMKEANIRGQGGLAYPGVRTHGTLESVNGPKAGSRGLTSLADTFEHVIEELLDEDQKVRPNEENNKDADLYTSRVMLSSQVPLEPPLLFLLEEYKNYLDAANMSMRVRRHSDPARRGELSVCDSISEWVTAADKKTAVDMSGGTVTVLEKVPVSKGQLKQYFYETKCNPMGYTKEGCRGIDKRHWNSQCRTTQSYVRALTMDSKKRIGWRFIRIDTSCVCTLTIKRGR
RGC protected (RGC; 7 days): 100% | RGC protected (RGC; by 21 days): 60%

B2: CNTF: ciliary neurotrophic factor (Peprotech), positive control at 440.5 pM (protein, UniProt P26441 1-200, looked up)
Ciliary neurotrophic factor: MAFTEHSPLTPHRRDLCSRSIWLARKIRSDLTALTESYVKHQGLNKNINLDSADGMPVASTDQWSELTEAERLQENLQAYRTFHVLLARLLEDQQVHFTPTEGDFHQAIHTLLLQVAAFAYQIEELMILLEYKIPRNEADGMPINVGDGGLFEKKLWGLKVLQELSQWTVRSIHDLRFISSHQTGIPARGSHYIANNKKM
fold increase in βIII-tubulin+ neuron survival compared to untreated cultures [2]: 1.9 fold | RGC axon regeneration after ONC (RGC axons): limited RGC axon regeneration

B3: full length PEDF: 50 kDa neurotrophic factor, member of the serpin superfamily (protein, UniProt P36955 1-418, looked up)
chain: MQALVLLLCIGALLGHSSCQNPASPPEEGSPDPDSTGALVEEEDPFFKVPVNKLAAAVSNFGYDLYRVRSSTSPTTNVLLSPLSVATALSALSLGAEQRTESIIHRALYYDLISSPDIHGTYKELLDTVTAPQKNLKSASRIVFEKKLRIKSSFVAPLEKSYGTRPRVLTGNPRLDLQEINNWVQAQMKGKLARSTKEIPDEISILLLGVAHFKGQWVTKFDSRKTSLEDFYLDEERTVRVPMMSDPKAVLRYGLDSDLSCKIAQLPLTGSMSIIFFLPLKVTQNLTLIEESLTSEFIHDIDRELKTVQAVLTVPKLKLSYEGEVTKSLQEMKLQSLFDSPDFSKITGKPIKLTQVEHRAGFEWNEDGAGTTPSPGLQPAHLTFPLDYHLNQPFIFVLRDTDTGALLFIGKILDPRGP
modifications: full-length
notes: 50 kDa neurotrophic factor, member of the serpin superfamily
survival of RGCs from death [3]: 55%
